US20210101970A1 (Pfizer, published 2021)

B1: 2C9 (reference antibody) (antibody, human IgG1, kappa, V domains shown)
VH: EVQLVESGGGLVKPGGSLRLSCAASGFTFSTNAMNWVRQAPGKGLERVARIRSKSNNYATYYADSVKDRFTISRDDSKNTLYLQMNSLKTEDTAVYYCVTMIPFAYWGQGTLVTVSS
VL: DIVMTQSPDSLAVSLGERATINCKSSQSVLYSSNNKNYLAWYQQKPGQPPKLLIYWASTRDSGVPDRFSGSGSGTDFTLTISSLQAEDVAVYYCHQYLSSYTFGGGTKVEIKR
notes: fucosylated
B2: Chimeric 11G2 (antibody, human IgG1, kappa, V domains shown)
VH: EVKLVESGGGLVQPGGSLRLSCATSGFTFTDFYMSWVRQPPGRALEWLGFIRNKANGYTTEYSASVKGRFTISRDNSQSILYLQMNTLRAGDSATYYCVRVYGSTLHYWGQGTILTVSS
VL: DVVVTQSPDSLAVSLGQRATISCRASESVEYHGTSLMHWYQQKPGQPPKLLIYAASNVESGVPARFSGSGSGTDFSLNIHPVEEGDIAMYFCQQSRKVPWTFGGGTKLEIKR
notes: mouse V regions on human IgG1/kappa; also called 11G2 (chimeric)
B3: Afucosyl humanized 11G2 154/155 (antibody, human IgG1, kappa, V domains shown)
VH: EVQLVESGGGLVQPGGSLRLSCAASGFTFTDFYMSWVRQAPGKGLEWVGFIRNKANGYTTEYSASVKGRFTISRDNAKNSLYLQMNSLRAEDTAVYYCARVYGSTLHYWGQGTLVTVSS
VL: DIQMTQSPSSLSASVGDRVTITCRASESVEYHGTSLMHWYQQKPGKAPKLLIYAASNVESGVPSRFSGSGSGTDFTLTISSLQPEDFATYYCQQSRKVPWTFGQGTKVEIKR
modifications: afucosylated Fc glycan (Asn297)
notes: also called afucosyl h11G2 XC154/XC155; afucosylated h11G2 VL XC154/VH XC155

Columns and labels:
[1] = target: T1, mouse CXCR5 (mouse, UniProt Q04683 1-374); test: flow cytometry on cells expressing mouse CXCR5
T1 construct: also called mCXCR5
T1 sequence: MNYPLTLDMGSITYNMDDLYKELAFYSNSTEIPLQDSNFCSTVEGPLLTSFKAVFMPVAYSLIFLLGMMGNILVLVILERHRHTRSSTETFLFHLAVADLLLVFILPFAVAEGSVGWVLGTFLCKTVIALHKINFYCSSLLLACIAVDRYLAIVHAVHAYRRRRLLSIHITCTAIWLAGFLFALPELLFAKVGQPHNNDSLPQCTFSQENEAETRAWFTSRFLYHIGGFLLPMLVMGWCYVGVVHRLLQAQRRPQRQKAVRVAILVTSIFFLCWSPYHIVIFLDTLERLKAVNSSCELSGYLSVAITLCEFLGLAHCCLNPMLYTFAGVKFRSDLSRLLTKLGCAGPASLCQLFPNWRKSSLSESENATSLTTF

[2] = target: T2, human CXCR5 (human, UniProt P32302 1-372); test: flow cytometry, human PBMC B cells
T2 construct: also called hCXCR5; C-X-C chemokine receptor type 5
T2 sequence: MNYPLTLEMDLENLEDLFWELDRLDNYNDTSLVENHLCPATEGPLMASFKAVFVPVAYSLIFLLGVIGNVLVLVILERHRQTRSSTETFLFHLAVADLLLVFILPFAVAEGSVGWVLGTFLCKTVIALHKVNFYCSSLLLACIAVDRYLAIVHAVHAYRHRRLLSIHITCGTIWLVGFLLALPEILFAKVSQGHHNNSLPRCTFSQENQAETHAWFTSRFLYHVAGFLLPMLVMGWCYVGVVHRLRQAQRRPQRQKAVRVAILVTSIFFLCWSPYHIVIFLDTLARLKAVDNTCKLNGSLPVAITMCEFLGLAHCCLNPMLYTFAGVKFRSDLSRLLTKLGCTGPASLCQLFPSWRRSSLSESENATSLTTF
Summary of the method: (§1)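 Human and cynomolgus PBMCs stained with 4-fold serial antibody dilutions (11 points from 5000 ng/mL) plus Fc block, 2 h on ice, then lineage markers and anti-human Ig secondary 30 min at 4 °C. gMFI of binding population read by flow cytometry; EC50 from sigmoidal fit of equilibrium binding curves.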

[3] = target: T3, XC254; test: FACS on cells expressing the CXCR5 construct
T3 construct: whole, on cells; also called hCXCR5-mL2-mL3

[4] = target: T4, XC251; test: FACS on cells expressing the CXCR5 construct
T4 construct: whole, on cells; also called hCXCR5-mL3

[5] = target: T2, human CXCR5; test: FACS on cells expressing the CXCR5 construct
[6] = target: T5, XC255; test: FACS on cells expressing the CXCR5 construct
T5 construct: whole, on cells; also called hCXCR5-mN-mL3

[7] = target: T6, XC253; test: FACS on cells expressing the CXCR5 construct
T6 construct: whole, on cells; also called hCXCR5-mN

[8] = target: T2, human CXCR5; test: cell-based or functional assay
[9] = target: T7, cynomolgus monkey CXCR5 (cynomolgus monkey, UniProt P32302 1-372 (human entry)); test: flow cytometry, cynomolgus PBMC B cells
T7 construct: also called cynoCXCR5; NHP CXCR5
T7 chain: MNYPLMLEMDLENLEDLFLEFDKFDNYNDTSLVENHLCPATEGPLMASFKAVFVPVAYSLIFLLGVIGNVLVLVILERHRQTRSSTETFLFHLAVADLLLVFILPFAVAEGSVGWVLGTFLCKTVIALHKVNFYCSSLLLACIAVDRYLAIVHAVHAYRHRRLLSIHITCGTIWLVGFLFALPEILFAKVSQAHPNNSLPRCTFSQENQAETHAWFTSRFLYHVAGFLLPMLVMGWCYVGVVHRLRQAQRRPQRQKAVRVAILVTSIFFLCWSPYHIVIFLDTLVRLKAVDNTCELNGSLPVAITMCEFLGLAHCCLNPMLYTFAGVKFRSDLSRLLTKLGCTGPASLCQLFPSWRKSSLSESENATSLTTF
Summary of the method: as §1

[10] = target: T2, human CXCR5; test: flow cytometry, human tonsil Tfh cells
[11] = target: T7, cynomolgus monkey CXCR5; test: cell-based or functional assay

Row | Binder | binding result [1] | EC50 [2] [pM] | GMFI [3] [GMFI] | GMFI [4] [GMFI] | GMFI [5] [GMFI] | GMFI [6] [GMFI] | GMFI [7] [GMFI] | ADCC Activity Average EC50, Human B Cells [8] [pM] | EC50 [9] [pM] | EC50 [10] [pM] | ADCC Activity Average EC50, NHP B Cells [11] [pM] | ADCC Activity Average EC50, Human Tfh Cells [8] [pM] | ADCC Activity Average EC50, Human Tfh-like Cells [8] [pM]
1 | B1 | no binding | 65.6 | 11400 | 13300 | 117000 | 1950 | 1780 | 380 | – | – | – | – | –
2 | B2 | – | 17.9 | – | – | – | – | – | 564 | 6.95 | 8.46 | 115 | 1.55 | –
3 | B3 | no binding | 6.6 | 11500 | 14600 | 139000 | 1320 | 1220 | 2.01 | 1.32 | 10.6 | 15.3 | 0.11 | 4.82
